Several values for one entry are separate records, joined by “and”; a condition that tells them apart may be missing. Identical values can stand only once. Bridges are numbered along the chain shown (N, C = ends). Where no end group is shown, it is not given here.
Columns and labels:
[1] = target: T1, A isoform of the insulin receptor (UniProt P06213-2 28-1370, limits assumed); experiment: receptor affinity (method not described), relative to wild-type human insulin
T1 construct: Isoform A is the short isoform lacking exon 11; also called IR-A

[2] = target: B isoform of the insulin receptor (UniProt P06213); experiment: as above
[3] = target: IGF Type I receptor (IGF-1R) (UniProt P08069); experiment: receptor affinity (method not described), relative to wild-type insulin
[4] = target: T1, A isoform of the insulin receptor; experiment: receptor-binding affinity assay (method not described; data not shown), relative to wild-type human insulin
[5] = substrate: B isoform of the insulin receptor (UniProt P06213); experiment: receptor-binding affinity assay (method not described), relative to wild-type human insulin

Molecule | affinity relative to wild-type human insulin (percent) [1] [%] | affinity relative to wild-type human insulin (percent) [2] [%] | fold reduction in affinity relative to wild-type insulin [3] [fold] | affinity relative to human insulin (percent) [4] [percent] | fold reduction in affinity relative to wild-type human insulin [5]
59-mer SCI with C domain EEGSRRSR ('this SCI' of paragraph 30) (ligand) | 10 to 150 | 10 to 150 | 10 |  | 
4SS 81-04 (57mer single-chain insulin analogue containing a fourth disulfide bridge between residues B4 and A10) (ligand, disulfide 19-56, 4-46, 42-47, 7-43, Single-chain insulin analogue, 57 residues, C domain EEGPRR; also called analogue 4SS 81-04) FVNCHLCGSHLVEALYLVCGERGFFYTDPTEEGPRRGIVEQCCHSCCSLEQLENYCN |  |  |  | 120 | 5 fold and 10 fold
